Measured values as given in the supplement of paper PMC10567573.
± gives the standard deviation.

Assay: protein stability index of a GFP-peptide fusion (GPS, HEK-293T) (PSI 1-6); higher = more stable
Conditions: c terminus: a fixed tail appended
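Also: 24-mer peptide tiles fused after GFP, lentivirally expressed, FACS-sorted into six equal bins by GFP/DsRed ratio, decoded by Illumina sequencing, PSI is the read-weighted mean bin number.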

| Sequence | protein stability index (treatment: DMSO) | protein stability index (treatment: MLN4924 1 uM, 8 h) |
| --- | --- | --- |
| DLVTGGELFEDIVAREYYSEADAS [CAMK2B] | 4.73 ± 0.2 | 4.52 ± 0.34 |
| KSISPWKSPPQLRQFLPEEFMKTL [DENND6A] | 2.47 ± 0.088 | 2.61 ± 0.3 |
| FFVSSINTLVTKTMEDTLMTVKQY [ARFIP2] | 3.08 ± 0.64 | 3.05 ± 1 |
| MMHGRSYSLASGAGGGGSKGNSLK [RAB40C] | 4.32 ± 0.061 | 4.51 ± 0.15 |
| PSVIQEIHQESGKAPSTDDATWAA [C10orf62] | 4.29 ± 0.33 | 4.66 ± 0.34 |
| CYSSRPLLCWSVWWALSTCGYFQV [SLC19A2] | 2.53 ± 0.19 | 3.55 ± 0.31 |
| QEANARERNRMHGLNDALDNLRKV [NEUROD6] | 4.55 ± 0.14 | 4.56 ± 0.23 |
| NKWTVQYNVSPLSWNVAVKFLMAR [PTPN9] | 2.47 ± 0.54 | 2.15 ± 0.38 |
| PSNKAPLLVLCEDHRGRMVKHQCC [EHMT1] | 3.13 ± 0.27 | 3.37 ± 0.34 |
| AIPITELTKSQVQDKPYKCTDCGK [ZNF8] | 4.25 ± 0.2 | 4.3 ± 0.21 |
| ALSSFREESRFCDAHLVLDGEEIP [GAN] | 4.51 ± 0.18 | 4.59 ± 0.14 |
| VDYTGQAKAQVRKAVQYEEKNPCR [STX11] | 4.37 ± 0.17 | 4.59 ± 0.18 |
| MVGGLKRKHSDLEEEEERWEWSPA [SERTAD3] | 4.23 ± 0.4 | 4.56 ± 0.16 |
| PNPGFSMLDFLSERPWIKRMIFKL [APMAP] | 2.05 ± 0.2 | 2.36 ± 0.66 |
| YVRDRADLNKDKPVIPAAALAGYT [ETS1] | 2.44 ± 0.6 | 3.35 ± 0.78 |
| EMFPAAQQLYRHGKAYRFLFGFSA [JAGN1] | 2.5 ± 0.56 | 2.31 ± 0.29 |
| AISLTKCLESTKLLADLKKCGDLE [MIA2] | 2.64 ± 0.57 | 2.79 ± 0.69 |
| TVQHGAVYSLEPRLCGGKGGFGSM [SDE2] | 2.33 ± 0.37 | 2.39 ± 0.29 |
| MMEKILGPIPSHMIHRTRKQKYFY [CLK3] | 2.27 ± 0.84 | 2.12 ± 0.3 |
| AEFMRNFQKGQVTRDGFKLVMASL [HMOX1] | 2.33 ± 0.75 | 2.26 ± 0.16 |
| FPPFFDDNPFGIYQKILAGKIDFP [PRKX] | 2.28 ± 0.067 | 2.27 ± 0.62 |
| ETEEMLGKKQEYLENRIQREIALA [CHMP4C] | 4.44 ± 0.14 | 4.58 ± 0.29 |
| QAPIAAVLLMHMPAEQAFWCLVQI [TBC1D10A] | 3.25 ± 0.93 | 3.06 ± 0.31 |

| Sequence | protein stability index (treatment: DMSO) | protein stability index (treatment: MLN4924 1 uM, 8 h) |
| --- | --- | --- |
| PTGEGSISHEEQKSVRLARELESR [CHCHD6] | 5.33 ± 0.17 | 5.35 ± 0.33 |
| EVNSRCYQPEPFACGIEHCSVHYV [FBXO34] | 2.58 ± 0.18 | 2.33 ± 0.67 |
| TQEKKRLSRTNEELLWKLQTGDPT [MTUS2] | 4.46 ± 0.34 | 4.36 ± 0.11 |
| PLSSDIQVITQTGVPGQPLNFKAE [PTPRD] | 4.66 ± 0.17 | 4.51 ± 0.26 |
| SASEEEDTKPKPTKRKRKGSSAVG [INTS3] | 5.23 ± 0.23 | 5.38 ± 0.16 |
| AEEAESHFSSIPDAFWWAVVSMTT [KCNA1] | 2.11 ± 0.31 | 2.1 ± 0.24 |
| ECPTCGHSYNVTQRRPRVLSCLHS [RNF208] | 3.22 ± 0.17 | 3.45 ± 0.49 |
| GQINVVKHLLNLGVEIDEINVYGN [ANKRD44] | 2.32 ± 0.46 | 2.29 ± 0.3 |
| PLSKSSPATTVTSPNSTPAKTIDT [SNAP91] | 5.18 ± 0.19 | 5.18 ± 0.12 |
| IYVKLIEECTDLQKEGEFSTCFTE [OAS1] | 2.37 ± 0.2 | 2.26 ± 0.28 |
| YFEGAPFPHPLWLRDTYKLWVPQP [PWWP2B] | 2.05 ± 0.24 | 2.18 ± 0.3 |
| KQASNLETAIADAEQRGDNALKDA [KRT71] | 5.66 ± 0.18 | 5.62 ± 0.22 |
| RMLMKRLDVTVQSFGWSDRAKVKT [FAM98B] | 2.48 ± 0.34 | 2.34 ± 0.34 |
| LTDAVAPGNKGRGQRGNTESKTDG [TCF25] | 5.5 ± 0.27 | 5.48 ± 0.45 |
| LLETANQTLQAMDSEDFPQAAKQI [FSD1] | 4.92 ± 0.26 | 4.79 ± 0.17 |
| LPPCAVRNLQDLARIYIRRTLRNF [PCMTD1] | 2.06 ± 0.29 | 2.04 ± 0.26 |
| KIRDWYQRQAPGPARDYSQYYRTI [KRT17] | 2.19 ± 0.37 | 2.42 ± 0.31 |
| LTEHQRIHTGIKPHQCSECGRAFS [ZNF649] | 3.58 ± 0.064 | 3.69 ± 0.38 |
| RTHGDMHSLVRSRHRIPEPEAAVL [TRIB3] | 3.8 ± 0.11 | 3.91 ± 0.086 |
| LEQEEERLSKEWEDSKRWSKMDQL [CHGA] | 4.81 ± 0.24 | 4.73 ± 0.17 |
| LWVQGDIFRSKLKNRPSSEGSINK [CDC14A] | 2.62 ± 0.19 | 2.92 ± 0.62 |
| DFLLRAASFDVCESVDEAGGSGPA [RHOBTB2] | 3.96 ± 0.16 | 4.05 ± 0.29 |
